Test results as given in patent publication US20130225506A1 (POLYPHOR, published 2013).
Square brackets hold non-standard residues; d marks the D form. Primed or numbered codes have the meaning given here. dPro(cis-4-NH2) = N[C@H]1CN[C@@H](C(=O)O)C1; dPro(4S-NH2) = N[C@@H]1CN[C@@H](C(=O)O)C1; Oic = O=C(O)[C@@H]1C[C@@H]2CCCC[C@@H]2N1; Pro(3S-OH) = O=C(O)[C@H]1NCC[C@@H]1O; hArg = N=C(N)NCCCC[C@H](N)C(=O)O; 3Pal = N[C@@H](Cc1cccnc1)C(=O)O; Tic = O=C(O)[C@@H]1Cc2ccccc2CN1; d3Pal = N[C@H](Cc1cccnc1)C(=O)O; Agb = N=C(N)NCC[C@H](N)C(=O)O; Agp = N=C(N)NC[C@H](N)C(=O)O; Orn = NCCC[C@H](N)C(=O)O; Dab = NCC[C@H](N)C(=O)O; Pip′ = not defined here

biological target: chemokine receptor CXCR7 (UniProt P25106 1-362, limits assumed); experiment: cell-based or functional assay
Sequence (P25106 whole entry): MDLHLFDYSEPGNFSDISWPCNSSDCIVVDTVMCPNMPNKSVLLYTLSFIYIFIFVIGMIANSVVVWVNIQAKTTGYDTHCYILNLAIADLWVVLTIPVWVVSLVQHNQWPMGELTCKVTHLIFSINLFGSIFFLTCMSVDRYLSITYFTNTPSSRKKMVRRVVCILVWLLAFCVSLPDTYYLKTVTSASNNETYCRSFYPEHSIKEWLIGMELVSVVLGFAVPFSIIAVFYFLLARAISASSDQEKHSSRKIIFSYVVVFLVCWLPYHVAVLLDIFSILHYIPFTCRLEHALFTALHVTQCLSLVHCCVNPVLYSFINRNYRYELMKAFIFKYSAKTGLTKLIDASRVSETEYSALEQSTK

| β-Arrestin EC50 [nM] | Binder |
| --- | --- |
| 138 | cyclo(W[dF]WK[dPro(cis-4-NH2)][Tic]) (SMILES NCCCC[C@@H]1NC(=O)[C@H](Cc2c[nH]c3ccccc23)NC(=O)[C@@H](Cc2ccccc2)NC(=O)[C@H](Cc2c[nH]c3ccccc23)NC(=O)[C@@H]2Cc3ccccc3CN2C(=O)[C@H]2C[C@@H](N)CN2C1=O) [cyclo(-Trp-^DPhe-Trp-Lys-^DPro((4R)NH2)-Tic-)] |
| 20.9 | cyclo(W[dF]WR[dPro(cis-4-NH2)][Oic]) (SMILES N=C(N)NCCC[C@@H]1NC(=O)[C@H](Cc2c[nH]c3ccccc23)NC(=O)[C@@H](Cc2ccccc2)NC(=O)[C@H](Cc2c[nH]c3ccccc23)NC(=O)[C@@H]2C[C@@H]3CCCC[C@@H]3N2C(=O)[C@H]2C[C@@H](N)CN2C1=O) [cyclo(-Trp-^DPhe-Trp-Arg-^DPro((4R)NH2)-Oic-)] |
| 20.5 | cyclo(R[dF]WR[dPro(cis-4-NH2)][Oic]) (SMILES N=C(N)NCCC[C@@H]1NC(=O)[C@@H]2C[C@@H]3CCCC[C@@H]3N2C(=O)[C@H]2C[C@@H](N)CN2C(=O)[C@H](CCCNC(=N)N)NC(=O)[C@H](Cc2c[nH]c3ccccc23)NC(=O)[C@@H](Cc2ccccc2)NC1=O) [cyclo(-Arg-^DPhe-Trp-Arg-^DPro((4R)NH2)-Oic-)] |
| 22.3 | cyclo(I[dR][Agb]W[dP]T) (SMILES CC[C@H](C)[C@@H]1NC(=O)[C@H]([C@@H](C)O)NC(=O)[C@H]2CCCN2C(=O)[C@H](Cc2c[nH]c3ccccc23)NC(=O)[C@H](CCNC(=N)N)NC(=O)[C@@H](CCCNC(=N)N)NC1=O) [cyclo(-Ile-^DArg-Agb-Trp-^DPro-Thr-)] |
| 87 | cyclo(I[dR][Dab]W[dP]T) (SMILES CC[C@H](C)[C@@H]1NC(=O)[C@H]([C@@H](C)O)NC(=O)[C@H]2CCCN2C(=O)[C@H](Cc2c[nH]c3ccccc23)NC(=O)[C@H](CCN)NC(=O)[C@@H](CCCNC(=N)N)NC1=O) [cyclo(-Ile-^DArg-Dab-Trp-^DPro-Thr-)] |
| 12.2 | cyclo([hArg][dF]WR[dPro(cis-4-NH2)][Tic]) (SMILES N=C(N)NCCCC[C@@H]1NC(=O)[C@@H]2Cc3ccccc3CN2C(=O)[C@H]2C[C@@H](N)CN2C(=O)[C@H](CCCNC(=N)N)NC(=O)[C@H](Cc2c[nH]c3ccccc23)NC(=O)[C@@H](Cc2ccccc2)NC1=O) [cyclo(-hArg-^DPhe-Trp-Arg-^DPro((4R)NH2)-Tic-)] |
| 20.4 | cyclo(W[dF]WH[dPro(cis-4-NH2)][Tic]) (SMILES N[C@@H]1C[C@@H]2C(=O)N3Cc4ccccc4C[C@H]3C(=O)N[C@@H](Cc3c[nH]c4ccccc34)C(=O)N[C@H](Cc3ccccc3)C(=O)N[C@@H](Cc3c[nH]c4ccccc34)C(=O)N[C@@H](Cc3c[nH]cn3)C(=O)N2C1) [cyclo(-Trp-^DPhe-Trp-His-^DPro((4R)NH2)-Tic-)] |
| 78.7 | cyclo(I[dR]KW[dP]T) (SMILES CC[C@H](C)[C@@H]1NC(=O)[C@H]([C@@H](C)O)NC(=O)[C@H]2CCCN2C(=O)[C@H](Cc2c[nH]c3ccccc23)NC(=O)[C@H](CCCCN)NC(=O)[C@@H](CCCNC(=N)N)NC1=O) [cyclo(-Ile-^DArg-Lys-Trp-^DPro-Thr-)] |
| 90.5 | cyclo(I[dR][Agp]W[dP]T) (SMILES CC[C@H](C)[C@@H]1NC(=O)[C@H]([C@@H](C)O)NC(=O)[C@H]2CCCN2C(=O)[C@H](Cc2c[nH]c3ccccc23)NC(=O)[C@H](CNC(=N)N)NC(=O)[C@@H](CCCNC(=N)N)NC1=O) [cyclo(-Ile-^DArg-Agp-Trp-^DPro-Thr-)] |
| 322 | cyclo(A[dF]WR[dPro(cis-4-NH2)][Tic]) (SMILES C[C@@H]1NC(=O)[C@@H]2Cc3ccccc3CN2C(=O)[C@H]2C[C@@H](N)CN2C(=O)[C@H](CCCNC(=N)N)NC(=O)[C@H](Cc2c[nH]c3ccccc23)NC(=O)[C@@H](Cc2ccccc2)NC1=O) [cyclo(-Ala-^DPhe-Trp-Arg-^DPro((4R)NH2)-Tic-)] |
| 12.8 | cyclo(I[dR]RW[dP]S) (SMILES CC[C@H](C)[C@@H]1NC(=O)[C@H](CO)NC(=O)[C@H]2CCCN2C(=O)[C@H](Cc2c[nH]c3ccccc23)NC(=O)[C@H](CCCNC(=N)N)NC(=O)[C@@H](CCCNC(=N)N)NC1=O) [cyclo(-Ile-^DArg-Arg-Trp-^DPro-Ser-)] |
| 5.1 | cyclo([3Pal][dF]WR[dPro(cis-4-NH2)][Tic]) (SMILES N=C(N)NCCC[C@@H]1NC(=O)[C@H](Cc2c[nH]c3ccccc23)NC(=O)[C@@H](Cc2ccccc2)NC(=O)[C@H](Cc2cccnc2)NC(=O)[C@@H]2Cc3ccccc3CN2C(=O)[C@H]2C[C@@H](N)CN2C1=O) [cyclo(-3Pal-^DPhe-Trp-Arg-^DPro((4R)NH2)-Tic-)] |
| 13.1 | cyclo(R[dF]WR[dPro(4S-NH2)][Tic]) (SMILES N=C(N)NCCC[C@@H]1NC(=O)[C@@H]2Cc3ccccc3CN2C(=O)[C@H]2C[C@H](N)CN2C(=O)[C@H](CCCNC(=N)N)NC(=O)[C@H](Cc2c[nH]c3ccccc23)NC(=O)[C@@H](Cc2ccccc2)NC1=O) [cyclo(-Arg-^DPhe-Trp-Arg-^DPro((4S)NH2)-Tic-)] |
| 20.9 | cyclo(Y[dF]WR[dPro(cis-4-NH2)][Tic]) (SMILES N=C(N)NCCC[C@@H]1NC(=O)[C@H](Cc2c[nH]c3ccccc23)NC(=O)[C@@H](Cc2ccccc2)NC(=O)[C@H](Cc2ccc(O)cc2)NC(=O)[C@@H]2Cc3ccccc3CN2C(=O)[C@H]2C[C@@H](N)CN2C1=O) [cyclo(-Tyr-^DPhe-Trp-Arg-^DPro((4R)NH2)-Tic-)] |

Continued, binder first:

| Binder | β-Arrestin EC50 [nM] |
| --- | --- |
| cyclo(R[dF]W[hArg][dPro(cis-4-NH2)][Tic]) (SMILES N=C(N)NCCCC[C@@H]1NC(=O)[C@H](Cc2c[nH]c3ccccc23)NC(=O)[C@@H](Cc2ccccc2)NC(=O)[C@H](CCCNC(=N)N)NC(=O)[C@@H]2Cc3ccccc3CN2C(=O)[C@H]2C[C@@H](N)CN2C1=O) [cyclo(-Arg-^DPhe-Trp-hArg-^DPro((4R)NH2)-Tic-)] | 352 |
| cyclo(W[dF]WR[dPro(cis-4-NH2)][Tic]) (SMILES N=C(N)NCCC[C@@H]1NC(=O)[C@H](Cc2c[nH]c3ccccc23)NC(=O)[C@@H](Cc2ccccc2)NC(=O)[C@H](Cc2c[nH]c3ccccc23)NC(=O)[C@@H]2Cc3ccccc3CN2C(=O)[C@H]2C[C@@H](N)CN2C1=O) [cyclo(-Trp-^DPhe-Trp-Arg-^DPro((4R)NH2)-Tic-)] | 6.1 |
| cyclo(W[d3Pal]WR[dPro(cis-4-NH2)][Tic]) (SMILES N=C(N)NCCC[C@@H]1NC(=O)[C@H](Cc2c[nH]c3ccccc23)NC(=O)[C@@H](Cc2cccnc2)NC(=O)[C@H](Cc2c[nH]c3ccccc23)NC(=O)[C@@H]2Cc3ccccc3CN2C(=O)[C@H]2C[C@@H](N)CN2C1=O) [cyclo(-Trp-^D3Pal-Trp-Arg-^DPro((4R)NH2)-Tic-)] | 6.1 |
| cyclo(W[dF]W[Dab][dPro(cis-4-NH2)][Tic]) (SMILES NCC[C@@H]1NC(=O)[C@H](Cc2c[nH]c3ccccc23)NC(=O)[C@@H](Cc2ccccc2)NC(=O)[C@H](Cc2c[nH]c3ccccc23)NC(=O)[C@@H]2Cc3ccccc3CN2C(=O)[C@H]2C[C@@H](N)CN2C1=O) [cyclo(-Trp-^DPhe-Trp-Dab-^DPro((4R)NH2)-Tic-)] | 13.6 |
| cyclo(I[dR]RW[dP][Pro(3S-OH)]) (SMILES CC[C@H](C)[C@@H]1NC(=O)[C@@H]2[C@@H](O)CCN2C(=O)[C@H]2CCCN2C(=O)[C@H](Cc2c[nH]c3ccccc23)NC(=O)[C@H](CCCNC(=N)N)NC(=O)[C@@H](CCCNC(=N)N)NC1=O) [cyclo(-Ile-^DArg-Arg-Trp-^DPro-Pro((3S)OH)-)] | 123 |
| cyclo(W[dF]WR[dP][Pro((4S)F)]) [cyclo(-Trp-^DPhe-Trp-Arg-^DPro-Pro((4S)F)-)] | 119 |
| cyclo(I[dR]RY[dP]T) (SMILES CC[C@H](C)[C@@H]1NC(=O)[C@H]([C@@H](C)O)NC(=O)[C@H]2CCCN2C(=O)[C@H](Cc2ccc(O)cc2)NC(=O)[C@H](CCCNC(=N)N)NC(=O)[C@@H](CCCNC(=N)N)NC1=O) [cyclo(-Ile-^DArg-Arg-Tyr-^DPro-Thr-)] | 83.7 |
| cyclo(W[dF]WR[dPro(4S-NH2)][Tic]) (SMILES N=C(N)NCCC[C@@H]1NC(=O)[C@H](Cc2c[nH]c3ccccc23)NC(=O)[C@@H](Cc2ccccc2)NC(=O)[C@H](Cc2c[nH]c3ccccc23)NC(=O)[C@@H]2Cc3ccccc3CN2C(=O)[C@H]2C[C@H](N)CN2C1=O) [cyclo(-Trp-^DPhe-Trp-Arg-^DPro((4S)NH2)-Tic-)] | 17.5 |
| cyclo(W[dF]W[Orn][dPro(cis-4-NH2)][Tic]) (SMILES NCCC[C@@H]1NC(=O)[C@H](Cc2c[nH]c3ccccc23)NC(=O)[C@@H](Cc2ccccc2)NC(=O)[C@H](Cc2c[nH]c3ccccc23)NC(=O)[C@@H]2Cc3ccccc3CN2C(=O)[C@H]2C[C@@H](N)CN2C1=O) [cyclo(-Trp-^DPhe-Trp-Orn-^DPro((4R)NH2)-Tic-)] | 26.1 |
| cyclo(W[dR]RW[dP]T) (SMILES C[C@@H](O)[C@@H]1NC(=O)[C@H]2CCCN2C(=O)[C@H](Cc2c[nH]c3ccccc23)NC(=O)[C@H](CCCNC(=N)N)NC(=O)[C@@H](CCCNC(=N)N)NC(=O)[C@H](Cc2c[nH]c3ccccc23)NC1=O) [cyclo(-Trp-^DArg-Arg-Trp-^DPro-Thr-)] | 538 |
| cyclo([Agb][dF]WR[dPro(cis-4-NH2)][Tic]) (SMILES N=C(N)NCCC[C@@H]1NC(=O)[C@H](Cc2c[nH]c3ccccc23)NC(=O)[C@@H](Cc2ccccc2)NC(=O)[C@H](CCNC(=N)N)NC(=O)[C@@H]2Cc3ccccc3CN2C(=O)[C@H]2C[C@@H](N)CN2C1=O) [cyclo(-Agb-^DPhe-Trp-Arg-^DPro((4R)NH2)-Tic-)] | 452 |
| cyclo([Pip′][dF]WR[dPro(cis-4-NH2)][Tic]) [cyclo(-Pip-^DPhe-Trp-Arg-^DPro((4R)NH2)-Tic-)] | 882 |
| cyclo(R[dF]WR[dPro(cis-4-NH2)][Tic]) (SMILES N=C(N)NCCC[C@@H]1NC(=O)[C@@H]2Cc3ccccc3CN2C(=O)[C@H]2C[C@@H](N)CN2C(=O)[C@H](CCCNC(=N)N)NC(=O)[C@H](Cc2c[nH]c3ccccc23)NC(=O)[C@@H](Cc2ccccc2)NC1=O) [cyclo(-Arg-^DPhe-Trp-Arg-^DPro((4R)NH2)-Tic-)] | 248 |
